Earlier results in US20140213534A1, “INTESTINAL HYPERPERMEABILITY AND PREVENTION OF SYSTEMIC DISEASE” (Thomas Jefferson University, priority 2011, published 2014).

Target: ST receptors (Homo sapiens, UniProt P25092)
Conditions: relative to native ST; Currie et al. 1992

Chain of ST receptors (P25092 24-1073): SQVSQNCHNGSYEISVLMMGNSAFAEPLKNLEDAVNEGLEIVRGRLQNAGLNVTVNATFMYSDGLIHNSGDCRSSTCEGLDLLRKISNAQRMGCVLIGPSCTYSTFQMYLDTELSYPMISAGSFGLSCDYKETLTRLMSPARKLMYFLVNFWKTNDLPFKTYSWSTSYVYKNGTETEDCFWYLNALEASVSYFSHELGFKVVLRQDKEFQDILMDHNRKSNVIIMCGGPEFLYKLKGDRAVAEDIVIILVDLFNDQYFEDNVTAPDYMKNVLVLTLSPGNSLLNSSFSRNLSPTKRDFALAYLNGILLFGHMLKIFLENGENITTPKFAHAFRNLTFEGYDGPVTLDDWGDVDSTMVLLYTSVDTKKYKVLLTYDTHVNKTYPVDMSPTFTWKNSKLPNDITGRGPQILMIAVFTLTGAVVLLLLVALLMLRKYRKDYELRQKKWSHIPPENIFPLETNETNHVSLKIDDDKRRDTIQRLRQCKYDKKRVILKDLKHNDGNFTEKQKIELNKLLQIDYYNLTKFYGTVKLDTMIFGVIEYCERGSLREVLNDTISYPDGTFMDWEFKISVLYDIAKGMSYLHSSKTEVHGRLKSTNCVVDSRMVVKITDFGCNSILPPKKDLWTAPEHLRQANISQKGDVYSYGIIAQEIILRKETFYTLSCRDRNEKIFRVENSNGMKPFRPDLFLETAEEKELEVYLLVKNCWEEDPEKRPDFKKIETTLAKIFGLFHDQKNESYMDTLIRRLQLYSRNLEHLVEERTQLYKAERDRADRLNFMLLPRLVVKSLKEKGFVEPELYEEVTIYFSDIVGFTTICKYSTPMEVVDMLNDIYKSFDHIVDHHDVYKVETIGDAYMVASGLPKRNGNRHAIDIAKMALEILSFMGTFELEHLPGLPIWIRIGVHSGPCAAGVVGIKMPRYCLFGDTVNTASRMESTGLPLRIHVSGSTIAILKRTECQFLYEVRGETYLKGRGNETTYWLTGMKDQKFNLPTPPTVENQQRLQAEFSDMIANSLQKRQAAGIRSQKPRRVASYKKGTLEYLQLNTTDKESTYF

In the case of “Guanylin: 15 amino acid peptide with about 50% sequence homology to ST, identified in mammalian intestine; endogenous GCC agonist (PNTCEICAYAACTGC; Rattus Norvegious)”, the “activates guanylate cyclase at a level fold less than native ST” value is given as 10- to 100 fold.
